According to publication PMC2206118:

Legend:
FIR1+2 F254L = FIR1+2 F254L (human, UniProt Q9UHX1-2 101-299, R106G;C112S;C238A;F254L); test: fluorescence anisotropy
FIR1+2 Y115L = FIR1+2 Y115L (human, UniProt Q9UHX1-2 101-299, R106G;C112S;C238A;Y115L); test: fluorescence anisotropy
FIR1+2 F157L = FIR1+2 F157L (human, UniProt Q9UHX1-2 101-299, R106G;C112S;C238A;F157L); test: fluorescence anisotropy
FIR1+2 WT (FIR RRM1+2) [1] = biological target: T1, FIR1+2 WT (FIR RRM1+2) (human, UniProt Q9UHX1-2 101-299, R106G;C112S;C238A); test: fluorescence anisotropy
T1 sequence (Q9UHX1 118-316 R123G/C129S/C255A): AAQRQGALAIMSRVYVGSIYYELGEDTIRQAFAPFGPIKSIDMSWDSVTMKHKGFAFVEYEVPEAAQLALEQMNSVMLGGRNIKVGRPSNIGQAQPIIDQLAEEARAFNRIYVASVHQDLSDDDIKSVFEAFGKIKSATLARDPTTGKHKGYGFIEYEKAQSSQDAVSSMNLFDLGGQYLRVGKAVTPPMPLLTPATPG

FIR1+2 WT (FIR RRM1+2) [2] = biological target: T1, FIR1+2 WT (FIR RRM1+2); test: X-ray crystallography

Sequence of FIR1+2 F157L (Q9UHX1 118-316 R123G/C129S/F174L/C255A): as the sequence (Q9UHX1 118-316 R123G/C129S/C255A) above, with F57L counted along it
Sequence of FIR1+2 F254L (Q9UHX1 118-316 R123G/C129S/C255A/F271L): as the sequence (Q9UHX1 118-316 R123G/C129S/C255A) above, with F154L counted along it
Sequence of FIR1+2 Y115L (Q9UHX1 118-316 R123G/C129S/Y132L/C255A): as the sequence (Q9UHX1 118-316 R123G/C129S/C255A) above, with Y15L counted along it

Row | Binder | Kd (FIR1+2 F254L) | Kd (FIR1+2 Y115L) | Kd (FIR1+2 F157L) | Kd (FIR1+2 WT (FIR RRM1+2) [1]) | binding result (FIR1+2 WT (FIR RRM1+2) [2])
1 | CCTCGGGATTTTTTATTTTGTGTTATT (ssDNA) [H27 (FUSE), fluorescein] | 0.17 ± 0.13 µM | 81 ± 31 µM | 140 ± 85 µM | 2.3 ± 1.8 µM | –
2 | TCGGGATTTTTTATTTTGTGTTATT (ssDNA) [H25 (FUSE)] | – | – | – | – | binds
